Consider two molecules from patent US20070111253A1 (MERCK, published 2007).

Test [1] deals with T1, human low-density lipoprotein receptor related protein 5 (LRP5) (human, UniProt O75197 32-1615).
T1 construct: whole, on cells; also called human LRP5
Briefly: cell binding to HEK 293 cells stably overexpressing human LRP5, time resolved fluorescence of europium label.

In test [2] the target is T1, human low-density lipoprotein receptor …. Description: competition with Eu-rhDkk-1 for binding to human LRP5 on HEK 293 cells, time resolved fluorescence. How it is done:
The rhDkk-1-LRP5 binding assays were carried out as follows. The recombinant HEK 293 cells stably overexpressing human LRP5 were plated into the wells of white/white, 384-well, PDL plates (BD Biosciences, San Jose, Calif.). Each well contained about 10,000 cells and 30 μL of medium containing 2.5% FBS. The next day, to each well, 250 nL of an analyte was added (high concentration copy, CyBi Disk) for final a concentration of about 30 μM. Next, 5 μL of Eu-rhDkk-1 (1 nM) was added to each of the wells (CyBi Well, 0.1 nM final concentration). After incubating at 37° C. for 30 minutes, the wells were washed four times each with a wash solution (Tris-buffered saline, pH 8.0) containing 0.02% Tween-20). After the final wash, 20 μL of Enhancement Solution (Perkin Elmer) was added to each of the wells. After incubating the wells in Enhancement Solution for 30 minutes at room temperature, the wells were vortexed and the time resolved fluorescence from the wells read using the […], a CCD-based optical imaging instrument that can measure fluorescence (Amersham Biosciences, Piscataway, N.J.).

For test [3] the target is unchanged. Description: competition with rhDkk-1-GFP fusion protein for binding to LRP5 on HEK 293 cells, fluorescence imaging (INCell 3000). Here is the method:
The rhDkk-1-GFP fusion protein-LRP5 binding assays were as follows. Recombinant HEK-293 cells stably overexpressing human LRP5 were plated into the wells of a 384-well tissue culture plate (Corning) at a concentration of about 6,000 cells/well. Each well contained 45 μL of phenol red-free DMEM containing 2.5% FBS. To each well, an analyte was added to give a final concentration of 15 μM. A minute later, 5 μL of conditioned medium containing rhDkk-1-GFP and 10 μM DRAQ5 nuclear stain is added to each well and the wells incubated at 37 °C for 25 minutes. Imaging and evaluation of rhDkk-1-GFP fusion protein binding to the recombinant cells overexpressing LRP5 was determined using an INCell 3000 imager (Amersham, Piscataway, N.J.).

T1 sequence (O75197 32-1615): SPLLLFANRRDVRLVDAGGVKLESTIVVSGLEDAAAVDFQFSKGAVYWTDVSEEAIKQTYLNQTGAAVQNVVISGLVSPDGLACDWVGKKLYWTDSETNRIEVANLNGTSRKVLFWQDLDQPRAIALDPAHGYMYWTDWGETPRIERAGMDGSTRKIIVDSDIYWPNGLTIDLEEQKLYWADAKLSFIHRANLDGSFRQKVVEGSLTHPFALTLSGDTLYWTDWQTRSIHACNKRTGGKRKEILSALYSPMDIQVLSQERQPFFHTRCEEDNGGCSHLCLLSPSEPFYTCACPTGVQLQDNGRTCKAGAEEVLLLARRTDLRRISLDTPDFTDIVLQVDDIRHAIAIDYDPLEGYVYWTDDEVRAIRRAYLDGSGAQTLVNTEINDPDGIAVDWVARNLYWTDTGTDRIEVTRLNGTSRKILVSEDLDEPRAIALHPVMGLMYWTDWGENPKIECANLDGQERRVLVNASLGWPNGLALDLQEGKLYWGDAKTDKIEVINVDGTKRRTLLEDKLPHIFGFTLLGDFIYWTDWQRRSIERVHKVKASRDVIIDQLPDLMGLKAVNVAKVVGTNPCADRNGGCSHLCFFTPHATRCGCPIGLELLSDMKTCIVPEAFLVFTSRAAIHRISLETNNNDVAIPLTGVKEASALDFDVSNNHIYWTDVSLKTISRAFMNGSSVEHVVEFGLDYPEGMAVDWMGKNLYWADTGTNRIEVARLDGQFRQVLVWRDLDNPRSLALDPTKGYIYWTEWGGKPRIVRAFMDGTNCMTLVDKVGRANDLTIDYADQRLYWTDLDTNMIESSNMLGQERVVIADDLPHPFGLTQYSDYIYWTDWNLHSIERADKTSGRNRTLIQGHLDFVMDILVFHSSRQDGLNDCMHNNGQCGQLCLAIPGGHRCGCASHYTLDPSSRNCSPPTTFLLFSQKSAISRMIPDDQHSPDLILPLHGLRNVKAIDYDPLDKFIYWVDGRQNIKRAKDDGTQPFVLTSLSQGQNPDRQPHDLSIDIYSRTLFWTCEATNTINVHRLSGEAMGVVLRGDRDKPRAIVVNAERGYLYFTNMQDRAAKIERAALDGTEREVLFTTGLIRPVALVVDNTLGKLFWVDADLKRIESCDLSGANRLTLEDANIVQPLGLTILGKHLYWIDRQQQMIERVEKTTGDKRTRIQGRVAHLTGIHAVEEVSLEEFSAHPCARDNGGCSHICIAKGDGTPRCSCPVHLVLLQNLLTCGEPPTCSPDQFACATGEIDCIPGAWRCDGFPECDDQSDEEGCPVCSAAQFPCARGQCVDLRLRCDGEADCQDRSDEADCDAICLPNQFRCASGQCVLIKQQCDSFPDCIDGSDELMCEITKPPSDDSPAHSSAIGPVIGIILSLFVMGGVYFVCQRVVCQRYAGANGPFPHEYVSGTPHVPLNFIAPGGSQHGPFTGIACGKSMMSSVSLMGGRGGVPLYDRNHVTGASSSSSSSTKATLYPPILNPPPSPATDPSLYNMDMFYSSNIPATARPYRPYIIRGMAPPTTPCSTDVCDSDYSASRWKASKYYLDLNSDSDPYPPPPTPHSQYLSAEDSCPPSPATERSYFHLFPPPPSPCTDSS

B1: rhDkk-1 comprising a polyhistidine sequence at the carboxy terminus, labeled with europium chelate N1-isothiocyanate (Eu-rhDkk-1) (ligand, not shown: small tags and cut ends)
chain: TLNSVLNSNAIKNLPPPLGGAAGHPGSAVSAAPGILYPGGNKYQTIDNYQPYPCAEDEECGTDEYCASPTRGGDAGVQICLACRKRRKRCMRHAMCCPGNYCKNGICVSSDQNNFRGEIEETITESFGNDHSTLDGYSRRTTLSSKMYHSKGQEGSVCLRSSDCATGLCCARHFWSKICKPVLKEGQVCTKHRRKGSHGLEIFQRCYCGEGLSCRIQKDHHQASNSSRLHTCQRH
modifications: labeled with europium chelate N1-isothiocyanate, about 9 Eu molecules per protein (sites not given)
notes: Produced in baculovirus-infected insect cells and purified on a nickel column; also called labeled RhDkk-1 protein; polyhistidine-tagged RhDkk-1
A word on the Kd: it is the concentration at which binding is half-saturated. A high value points to a looser complex. In test [1], B1 displayed a Kd of around 1 nM.

B2: rhesus monkey dickkopf-1 (rhDkk-1), unlabeled competitor (ligand)
chain: TLNSVLNSNAIKNLPPPLGGAAGHPGSAVSAAPGILYPGGNKYQTIDNYQPYPCAEDEECGTDEYCASPTRGGDAGVQICLACRKRRKRCMRHAMCCPGNYCKNGICVSSDQNNFRGEIEETITESFGNDHSTLDGYSRRTTLSSKMYHSKGQEGSVCLRSSDCATGLCCARHFWSKICKPVLKEGQVCTKHRRKGSHGLEIFQRCYCGEGLSCRIQKDHHQASNSSRLHTCQRH
By IC50 is commonly meant the point on the concentration scale where inhibition reaches its midpoint. High values mean lower potency, low ones higher potency. In the case of B2, the IC50 in test [2] was around 0.2 nM; in test [3], around 1 nM.
